The results in this text go back to PMC8496131, “Accessing Chemo- and Regioselective Benzylic and Aromatic Oxidations by Protein Engineering of an Unspecific Peroxygenase” (ACS Catalysis, 2021).

Substrate in the data set: O=[N+]([O-])c1ccc2c(c1)OCO2
In words: purified protein. The settings on record: H2O2 as saturating co-substrate, standard deviation <18%. The class given is biochemical, Thermothelomyces thermophilus.

Where a chain is given by its changes, count along the chain named. Numbers in names are those of the source.

B1: MthUPO (Thermothelomyces thermophilus ATCC 42464) (protein)
chain: AGFDTWSPPGPYDVRAPCPMLNTLANHGFLPHDGKDITREQTENALFEALHINKTLASFLFDFALTTNPKNTSTFSLNDLGNHNILEHDASLSRADAYFGNVLQFNQTVFDETKTYWEGDTIDLRMAAKARLGRIKTSQATNPTYSMSELGDAFTYGESAAYVVVLGDKESRTVKRSWVEWFFEHEQLPQHLGWKRPAASFEEEDLNSSMEEIEKYTKELEGSNSTSGSQKHRRRLPRRRAHFGF
notes: secreted from S. cerevisiae, purified; 245 AA plus C-terminal TwinStrep-GFP11 tag; heme-thiolate
Turning to B1, where the note is “20 nM enzyme”, the Km (commonly the substrate concentration at which the rate is half of its maximum) is 386 µM; the kcat (usually the number of substrate molecules converted per active site and unit of time at saturation) worked out at 7.1 s⁻¹; the kcat/Km (commonly the second-order rate constant that governs catalysis at low substrate concentration) is 19000 M⁻¹ s⁻¹.

B2: MthUPO (Thermothelomyces thermophilus ATCC 42464; L76F) (protein)
chain: B1 chain with L60F
notes: as for B1
Consider B2, for which, under “5 nM enzyme”, the Km was determined as 110 µM, the kcat is 2.9 s⁻¹ and the kcat/Km was 27000 M⁻¹ s⁻¹.

B3: MthUPO (Thermothelomyces thermophilus ATCC 42464; F170A/F75Q/L76M/S175G) (protein)
chain: B1 chain with F59Q, L60M, F154A, S159G
notes: as for B1
For the protein B3, for the setting “20 nM enzyme”, the Km was 290 µM, the kcat came to 59.4 s⁻¹ and the kcat/Km came out at 210000 M⁻¹ s⁻¹.

B4: MthUPO (Thermothelomyces thermophilus ATCC 42464; A177F/L76F/S175G) (protein)
chain: B1 chain with L60F, S159G, A161F
notes: as for B1
On to B4, for which, for the setting “20 nM enzyme”, the Km amounted to 422 µM, the kcat amounted to 132 s⁻¹ and the kcat/Km worked out at 310000 M⁻¹ s⁻¹.

B5: MthUPO (Thermothelomyces thermophilus ATCC 42464; F75Q/L76F/S175G) (protein)
chain: B1 chain with F59Q, L60F, S159G
notes: as for B1
For the protein B5, where the note is “20 nM enzyme”, the Km came out at 303 µM, the kcat came out at 47 s⁻¹ and the kcat/Km was 160000 M⁻¹ s⁻¹.
